Measurements reported in paper PMC3192843.

Tested on: nsp16;nsp10 (SARS-CoV strain WHU;SARS-CoV strain WHU)
Test: ITC
Conditions: 5' m7GpppA cap-0

m7GpppA-RNA
Kd: 1210 nM
